Here are results for 5 molecules from patent US20260258452, “RNA-GUIDED NUCLEASES AND ACTIVE FRAGMENTS AND VARIANTS THEREOF AND METHODS OF USE” (Life Edit Therapeutics, Inc., published 2026).

Common to all, as to assay: cell_activity; PAM SEQ ID 116
Holding throughout (conditions): tags: N-terminal SV40 NLS and 3xFLAG, C-terminal nucleoplasmin NLS

For series [1], the target named is T1, APG07991 (Enterococcus sp.).
T1 chain: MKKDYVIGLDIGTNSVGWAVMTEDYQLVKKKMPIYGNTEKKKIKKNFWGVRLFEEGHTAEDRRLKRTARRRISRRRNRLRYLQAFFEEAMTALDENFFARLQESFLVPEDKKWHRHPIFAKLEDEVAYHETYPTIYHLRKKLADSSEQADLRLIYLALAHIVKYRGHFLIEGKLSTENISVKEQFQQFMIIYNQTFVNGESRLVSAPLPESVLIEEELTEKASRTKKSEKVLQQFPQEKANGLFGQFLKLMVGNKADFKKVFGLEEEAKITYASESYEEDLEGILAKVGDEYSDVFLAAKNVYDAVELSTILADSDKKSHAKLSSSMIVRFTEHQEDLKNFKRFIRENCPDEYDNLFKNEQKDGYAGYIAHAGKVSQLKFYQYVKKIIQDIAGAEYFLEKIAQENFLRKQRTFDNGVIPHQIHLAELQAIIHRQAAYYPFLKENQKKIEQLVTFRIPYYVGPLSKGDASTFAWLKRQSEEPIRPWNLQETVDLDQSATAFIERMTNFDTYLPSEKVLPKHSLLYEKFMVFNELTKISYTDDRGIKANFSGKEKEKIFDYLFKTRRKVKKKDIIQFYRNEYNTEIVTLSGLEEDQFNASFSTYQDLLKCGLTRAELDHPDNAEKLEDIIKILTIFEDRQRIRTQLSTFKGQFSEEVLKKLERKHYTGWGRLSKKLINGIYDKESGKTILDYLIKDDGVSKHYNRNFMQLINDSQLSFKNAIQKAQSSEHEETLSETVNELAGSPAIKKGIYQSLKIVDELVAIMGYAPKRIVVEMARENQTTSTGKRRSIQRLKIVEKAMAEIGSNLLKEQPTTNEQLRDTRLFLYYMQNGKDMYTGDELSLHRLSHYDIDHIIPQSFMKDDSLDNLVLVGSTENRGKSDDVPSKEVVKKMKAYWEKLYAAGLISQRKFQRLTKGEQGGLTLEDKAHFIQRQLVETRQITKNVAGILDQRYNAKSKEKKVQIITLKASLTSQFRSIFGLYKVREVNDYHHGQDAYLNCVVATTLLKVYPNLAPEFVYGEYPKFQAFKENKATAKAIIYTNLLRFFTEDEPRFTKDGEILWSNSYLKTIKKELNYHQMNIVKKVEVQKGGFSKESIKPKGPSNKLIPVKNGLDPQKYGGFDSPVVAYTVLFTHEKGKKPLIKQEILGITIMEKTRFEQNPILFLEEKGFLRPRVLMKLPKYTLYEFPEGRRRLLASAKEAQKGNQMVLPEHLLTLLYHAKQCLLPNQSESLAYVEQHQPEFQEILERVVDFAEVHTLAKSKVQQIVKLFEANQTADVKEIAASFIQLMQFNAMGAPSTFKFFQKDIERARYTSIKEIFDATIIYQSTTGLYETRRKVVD

Series [2] concerns the target T2, APG01868 (Enterococcus sp.).
T2 chain: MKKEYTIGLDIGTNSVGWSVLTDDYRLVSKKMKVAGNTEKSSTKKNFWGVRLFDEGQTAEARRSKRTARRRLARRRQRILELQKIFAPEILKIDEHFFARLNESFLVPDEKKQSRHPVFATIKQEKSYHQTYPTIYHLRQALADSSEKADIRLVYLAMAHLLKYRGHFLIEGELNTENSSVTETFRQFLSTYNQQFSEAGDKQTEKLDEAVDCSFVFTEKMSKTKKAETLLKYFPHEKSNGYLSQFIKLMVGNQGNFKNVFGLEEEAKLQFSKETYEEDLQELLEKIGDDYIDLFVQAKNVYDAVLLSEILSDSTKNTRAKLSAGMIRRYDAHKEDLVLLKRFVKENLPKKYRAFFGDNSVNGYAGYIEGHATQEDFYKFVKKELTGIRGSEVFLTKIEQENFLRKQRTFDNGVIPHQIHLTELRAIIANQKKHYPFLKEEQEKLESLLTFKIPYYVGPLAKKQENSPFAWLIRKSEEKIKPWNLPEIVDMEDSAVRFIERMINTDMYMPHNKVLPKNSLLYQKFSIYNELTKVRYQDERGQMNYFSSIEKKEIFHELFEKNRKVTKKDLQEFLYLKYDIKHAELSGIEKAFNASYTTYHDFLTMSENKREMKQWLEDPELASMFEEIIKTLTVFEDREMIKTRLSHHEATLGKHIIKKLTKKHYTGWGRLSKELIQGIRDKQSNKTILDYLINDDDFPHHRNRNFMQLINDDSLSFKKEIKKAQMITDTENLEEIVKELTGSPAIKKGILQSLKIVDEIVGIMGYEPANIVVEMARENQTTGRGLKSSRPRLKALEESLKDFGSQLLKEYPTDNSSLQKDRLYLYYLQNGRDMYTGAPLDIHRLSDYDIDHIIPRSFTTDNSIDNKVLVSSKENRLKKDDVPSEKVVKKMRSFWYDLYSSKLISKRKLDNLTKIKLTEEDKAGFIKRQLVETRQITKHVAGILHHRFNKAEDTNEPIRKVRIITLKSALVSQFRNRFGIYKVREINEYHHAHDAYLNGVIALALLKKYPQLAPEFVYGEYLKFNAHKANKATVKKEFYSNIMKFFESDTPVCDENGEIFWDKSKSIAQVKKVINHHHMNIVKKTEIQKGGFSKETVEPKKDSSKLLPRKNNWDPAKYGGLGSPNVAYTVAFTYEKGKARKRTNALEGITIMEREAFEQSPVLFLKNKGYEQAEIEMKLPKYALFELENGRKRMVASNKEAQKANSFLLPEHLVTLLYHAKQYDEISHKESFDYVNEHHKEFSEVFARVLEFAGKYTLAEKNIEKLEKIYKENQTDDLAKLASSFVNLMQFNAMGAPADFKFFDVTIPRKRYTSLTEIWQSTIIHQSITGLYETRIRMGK

Series [3] addresses T3, APG02998 (Enterococcus sp.).
T3 chain: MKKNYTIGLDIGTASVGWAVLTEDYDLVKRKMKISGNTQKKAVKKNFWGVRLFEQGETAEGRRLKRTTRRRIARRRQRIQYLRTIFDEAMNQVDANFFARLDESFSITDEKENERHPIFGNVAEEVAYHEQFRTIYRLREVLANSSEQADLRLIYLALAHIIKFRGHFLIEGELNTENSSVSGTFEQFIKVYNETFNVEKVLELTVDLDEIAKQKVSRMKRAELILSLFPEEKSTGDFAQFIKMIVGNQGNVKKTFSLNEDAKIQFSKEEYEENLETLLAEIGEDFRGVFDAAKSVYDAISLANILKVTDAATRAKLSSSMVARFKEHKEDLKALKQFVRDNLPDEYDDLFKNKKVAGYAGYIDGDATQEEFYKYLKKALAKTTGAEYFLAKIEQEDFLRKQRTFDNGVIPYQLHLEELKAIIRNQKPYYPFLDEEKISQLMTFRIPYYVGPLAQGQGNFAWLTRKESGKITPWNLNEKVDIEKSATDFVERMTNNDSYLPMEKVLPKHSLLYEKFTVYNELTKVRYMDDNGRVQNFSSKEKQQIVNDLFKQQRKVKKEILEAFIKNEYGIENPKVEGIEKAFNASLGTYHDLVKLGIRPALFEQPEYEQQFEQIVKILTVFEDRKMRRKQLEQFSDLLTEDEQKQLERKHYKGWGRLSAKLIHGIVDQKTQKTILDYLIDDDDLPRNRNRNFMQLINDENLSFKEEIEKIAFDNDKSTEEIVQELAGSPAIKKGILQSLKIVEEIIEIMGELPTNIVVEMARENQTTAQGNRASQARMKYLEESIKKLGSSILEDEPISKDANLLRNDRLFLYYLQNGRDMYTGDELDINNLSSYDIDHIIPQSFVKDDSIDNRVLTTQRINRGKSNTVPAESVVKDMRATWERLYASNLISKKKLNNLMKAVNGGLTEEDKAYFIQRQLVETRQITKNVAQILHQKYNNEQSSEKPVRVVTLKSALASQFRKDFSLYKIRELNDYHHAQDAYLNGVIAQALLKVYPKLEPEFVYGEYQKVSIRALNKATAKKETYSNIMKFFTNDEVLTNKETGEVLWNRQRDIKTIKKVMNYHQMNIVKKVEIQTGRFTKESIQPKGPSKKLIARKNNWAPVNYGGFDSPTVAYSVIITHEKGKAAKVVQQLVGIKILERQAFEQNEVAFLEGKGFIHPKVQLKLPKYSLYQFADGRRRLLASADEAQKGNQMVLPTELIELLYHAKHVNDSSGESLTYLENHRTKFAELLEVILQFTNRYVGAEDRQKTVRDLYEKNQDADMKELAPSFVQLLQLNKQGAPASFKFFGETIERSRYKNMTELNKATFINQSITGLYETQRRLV

B1: SGN001357 ; HAO1 target SGN001357 (ssRNA ; dsDNA)
RNA: CAUUGAUACAAAUUAGCCGGGUUUUAGAGUCAUGUUGAAAGCAACAUAGCAAGUUAAAAUAAGGUUUUAACCGUAAUCAACUGUAAAGUGGCGCUGUUUCGGCGCUUUU
DNA 1: CATTGATACAAATTAGCCGG
DNA 2: CCGGCTAATTTGTATCAATG
B1: in series [1], the activity is 13.3 % editing.

B2: SGN001343 ; TRA target SGN001343 (ssRNA ; dsDNA)
RNA: UCUGUGGGACAAGAGGAUCAGUUUUAGAGCUAUGCAAAGGCAUAGCAAGUUAAAAUAAGGCUUUGUCCGUCAUCAGCUUUUUUAAAGCAGCGCUGUUCUCGGCGCUUUU
DNA 1: TCTGTGGGACAAGAGGATCA
DNA 2: TGATCCTCTTGTCCCACAGA
B2 returned an activity in series [2] of 41.4 % editing.

B3: SGN001346 ; TRA target SGN001346 (ssRNA ; dsDNA)
RNA: UCUGUGGGACAAGAGGAUCAGUUUUAGAGCUAUGCAAAGGCAUAGCAAGUUAAAAUAAGGCUUAGUCCGUAAACAAACUUUGGCACUGUAUUCGGUGCUUUUUUU
DNA 1: TCTGTGGGACAAGAGGATCA
DNA 2: TGATCCTCTTGTCCCACAGA
As for B3, the activity in series [3] turned out to be 5.87 % editing.

B4: SGN001317 ; RelA target SGN001317 (ssRNA ; dsDNA)
RNA: ACAGUGCGCAUCUCCCUGGUCACCAGUUUUAGAGCUAUGCAAAGGCAUAGCAAGUUAAAAUAAGGCUUUGUCCGUCAUCAGCUUUUUUAAAGCAGCGCUGUUCUCGGCGCUUUU
DNA 1: ACAGTGCGCATCTCCCTGGTCACCA
DNA 2: TGGTGACCAGGGAGATGCGCACTGT
B4 registered an activity in series [2] of 19.4 % editing.

B5: SGN001320 ; RelA target SGN001320 (ssRNA ; dsDNA)
RNA: ACAGUGCGCAUCUCCCUGGUCACCAGUUUUAGAGCUAUGCAAAGGCAUAGCAAGUUAAAAUAAGGCUUAGUCCGUAAACAAACUUUGGCACUGUAUUCGGUGCUUUUUUU
DNA 1: ACAGTGCGCATCTCCCTGGTCACCA
DNA 2: TGGTGACCAGGGAGATGCGCACTGT
In series [3], B5 registered an activity of 3.48 % editing.
